Reference: US20260242504A1 (CHIOME BIOSCIENCE, published 2026)

Key:
[1] = biological target: T1, recombinant human PD-L1/Fc (human, UniProt Q9NZQ7 19-239, biotinylated in the competitive ELISA (sites not given)); experiment: ELISA, immobilized recombinant human PD-L1/Fc, 0-500 nM (N=2)
T1 construct: Bought from R&D Systems; also called recombinant PD-L1 protein; biotinylated PD-L1 ligand; not shown: Fc part of the bought fusion
Description: The binding affinity of purified 53L10-M13 to recombinant PD-L1 protein was examined by ELISA (FIG. 16). A recombinant human PD-L1/Fc protein (R&D Biosystems) was immobilized in a 96-well plate using the same method as that performed in Example 4. According to the procedure described in “Materials and Methods” later, the binding assay of 53L10-M13 and 53L10 to human PD-L1 protein was performed at increasing concentrations (0-500 nM). […] The curve showing the binding affinity of 53L10-M13 to PD-L1 overlapped with the curve showing the binding affinity of 53L10 (●) to PD-L1.

[2] = biological target: T2, 5T4 on 5T4-expressing CHO-K1 cells (UniProt Q13641 32-420); experiment: cell-based or functional assay
T2 sequence (looked up): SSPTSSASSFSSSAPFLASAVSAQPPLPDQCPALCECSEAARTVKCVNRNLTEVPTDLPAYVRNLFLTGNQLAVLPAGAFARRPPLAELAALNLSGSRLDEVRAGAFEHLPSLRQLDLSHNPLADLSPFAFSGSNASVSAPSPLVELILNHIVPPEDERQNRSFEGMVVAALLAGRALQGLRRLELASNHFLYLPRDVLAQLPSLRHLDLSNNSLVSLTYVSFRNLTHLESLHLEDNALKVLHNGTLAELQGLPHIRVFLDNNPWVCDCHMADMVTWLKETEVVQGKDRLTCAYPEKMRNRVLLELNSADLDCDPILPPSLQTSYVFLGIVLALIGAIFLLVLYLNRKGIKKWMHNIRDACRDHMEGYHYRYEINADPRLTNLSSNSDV

[3] = biological target: T3, recombinant human 5T4 protein (5T4/His) (human, UniProt Q13641 32-355); experiment: ELISA, immobilized recombinant human 5T4, 0-500 nM (N=2)
T3 construct: also called Human 5T4/His; recombinant 5T4; not shown: His tag of the bought protein
T3 sequence: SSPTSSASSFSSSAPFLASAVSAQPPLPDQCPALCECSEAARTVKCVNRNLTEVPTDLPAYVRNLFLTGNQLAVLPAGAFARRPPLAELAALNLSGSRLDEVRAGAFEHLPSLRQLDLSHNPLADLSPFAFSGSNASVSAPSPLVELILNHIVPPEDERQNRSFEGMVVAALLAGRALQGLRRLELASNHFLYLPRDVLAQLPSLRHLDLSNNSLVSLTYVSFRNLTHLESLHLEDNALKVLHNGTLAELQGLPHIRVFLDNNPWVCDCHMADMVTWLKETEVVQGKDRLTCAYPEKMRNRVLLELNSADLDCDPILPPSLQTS
Description: The binding affinity of purified 53L10-M13 to 5T4 antigen was examined by ELISA (FIG. 14). A recombinant human 5T4 protein (ACRO Biosystems) was immobilized in a 96-well plate using the same method as that performed in FIG. 2 (Example 1). […] The curve showing the binding affinity of 53L10-M13 to 5T4 overlapped with the curve showing the binding affinity of 53L10 (●) to 5T4. The EC₅₀ values were 0.58 nM for 53L10-M13 and 0.53 nM for 53L10 (FIG. 14B).

[4] = biological target: T3, recombinant human 5T4 protein (5T4/His); experiment: ELISA, immobilized recombinant human 5T4, tribody 0-500 nM
Description: A recombinant human 5T4 protein (AMSBio) was immobilized onto 96-well ELISA plates. The binding assay of Tb535H and purified novel tribodies was performed by testing at increasing concentrations (0-500 nM) were carried out according to the procedure described in Materials and Methods. […] The Tb535H has two 5T4 binding arms derived from Fab and scFv, and the novel 53X tribody constructed has a monovalent 5T4 binding arm derived from a single Fab.

[5] = biological target: T4, recombinant human PD-1/Fc (human, UniProt Q15116 25-167); experiment: ELISA, immobilized recombinant human PD-1 (per the legend of FIG. 4B; the sentence prints PD-L1)
T4 construct: Bought from R&D Systems; also called recombinant PD-1 protein; immobilized PD-1 receptor; not shown: Fc part of the bought fusion
Text: To verify whether the novel tribodies including a binding arm to PD-L1 or PD-1 have a satisfactory binding affinity for their target recombinant proteins, we perfomed ELISA assays on immobilized PD-1 or PD-L1 proteins (FIG. 4).

T1 sequence (Q9NZQ7 19-239 limits assumed): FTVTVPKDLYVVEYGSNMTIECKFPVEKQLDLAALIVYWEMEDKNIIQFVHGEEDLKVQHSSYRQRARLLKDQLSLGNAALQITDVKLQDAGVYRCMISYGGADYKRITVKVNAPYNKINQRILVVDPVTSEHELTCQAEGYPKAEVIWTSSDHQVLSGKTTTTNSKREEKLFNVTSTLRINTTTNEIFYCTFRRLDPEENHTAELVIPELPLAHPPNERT
T4 sequence (Q15116 25-167 limits assumed): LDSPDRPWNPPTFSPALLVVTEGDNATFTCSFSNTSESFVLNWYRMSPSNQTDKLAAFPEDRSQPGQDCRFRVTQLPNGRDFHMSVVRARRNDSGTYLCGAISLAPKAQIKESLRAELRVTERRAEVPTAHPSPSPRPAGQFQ

B1: 53L10-M13 (other)
chain 1: QVQLVQSGAEVKKPGASVKVSCKASGYSFTSYYMHWVKQSPGQGLEWIGRINPNNGVTLYNQKFKDRVTMTRDTSISTAYMELSRLRSDDTAVYYCARSTMITNYVMDYWGQGTLVTVSSASTKGPSVFPLAPSSKSTSGGTAALGCLVKDYFPEPVTVSWNSGALTSGVHTFPAVLQSSGLYSLSSVVTVPSSSLGTQTYICNVNHKPSNTKVDKKVEPKSCDKTHTGPGGGSPGQVQLVQSGAELKKPGASVKVSCKASGYTFTRYTMHWVRQAPGQCLEWMGYINPSRGYTNYNQKFKDKATLTADKSTSTAYMELRSLRSDDTAVYYCARYYDDHYSLDYWGQGTLVTVSSASGGGGSGGGGSGGGGSAGDIQLTQSPSILSASVGDRVTITCRASSSVSYMNWYQQKPGKAPKRWIYDTSKVASGVPYRFSGSGSGTEYTLTISSMQPEDFATYYCQQWSSNPLTFGCGTKVEIKSG
chain 2: not shown
notes: also called 53L10 mutant; 53L0-M13
[1]
  EC50: 36.9 nM
[2]
  EC50 of luciferase activity, T cell activation bioassay (NFAT) with CHO-5T4 target cells: 0.016 nM
[3]
  EC50: 0.58 nM

B2: 53P tribody (other)
chain 1: QVQLVQSGAEVKKPGASVKVSCKASGYSFTSYYMHWVKQSPGQGLEWIGRINPNNGVTLYNQKFKDRVTMTRDTSISTAYMELSRLRSDDTAVYYCARSTMITNYVMDYWGQGTLVTVSSASTKGPSVFPLAPSSKSTSGGTAALGCLVKDYFPEPVTVSWNSGALTSGVHTFPAVLQSSGLYSLSSVVTVPSSSLGTQTYICNVNHKPSNTKVDKKVEPKSCDKTHTGPGGGSPGQVQLVQSGAELKKPGASVKVSCKASGYTFTRYTMHWVRQAPGQCLEWMGYINPSRGYTNYNQKFKDKATLTADKSTSTAYMELRSLRSDDTAVYYCARYYDDHYSLDYWGQGTLVTVSSASGGGGSGGGGSGGGGSAGDIQLTQSPSILSASVGDRVTITCRASSSVSYMNWYQQKPGKAPKRWIYDTSKVASGVPYRFSGSGSGTEYTLTISSMQPEDFATYYCQQWSSNPLTFGCGTKVEIKSG
chain 2: not shown
notes: also called 5T4xCD3xisotype control
[4]
  binding result: binds

B3: 53G tribody (other)
chain 1: QVQLVQSGAEVKKPGASVKVSCKASGYSFTSYYMHWVKQSPGQGLEWIGRINPNNGVTLYNQKFKDRVTMTRDTSISTAYMELSRLRSDDTAVYYCARSTMITNYVMDYWGQGTLVTVSSASTKGPSVFPLAPSSKSTSGGTAALGCLVKDYFPEPVTVSWNSGALTSGVHTFPAVLQSSGLYSLSSVVTVPSSSLGTQTYICNVNHKPSNTKVDKKVEPKSCDKTHTGPGGGSPGQVQLVQSGAELKKPGASVKVSCKASGYTFTRYTMHWVRQAPGQCLEWMGYINPSRGYTNYNQKFKDKATLTADKSTSTAYMELRSLRSDDTAVYYCARYYDDHYSLDYWGQGTLVTVSSASGGGGSGGGGSGGGGSAGDIQLTQSPSILSASVGDRVTITCRASSSVSYMNWYQQKPGKAPKRWIYDTSKVASGVPYRFSGSGSGTEYTLTISSMQPEDFATYYCQQWSSNPLTFGCGTKVEIKSG
chain 2: not shown
notes: Trispecific tribody, a heterodimer; L chain derivative: VL(5T4)-CL-scFv(LAG3.1); also called 5T4xCD3xLAG3
[4]
  binding result: binds

B4: 53D tribody (other)
chain 1: QVQLVQSGAEVKKPGASVKVSCKASGYSFTSYYMHWVKQSPGQGLEWIGRINPNNGVTLYNQKFKDRVTMTRDTSISTAYMELSRLRSDDTAVYYCARSTMITNYVMDYWGQGTLVTVSSASTKGPSVFPLAPSSKSTSGGTAALGCLVKDYFPEPVTVSWNSGALTSGVHTFPAVLQSSGLYSLSSVVTVPSSSLGTQTYICNVNHKPSNTKVDKKVEPKSCDKTHTGPGGGSPGQVQLVQSGAELKKPGASVKVSCKASGYTFTRYTMHWVRQAPGQCLEWMGYINPSRGYTNYNQKFKDKATLTADKSTSTAYMELRSLRSDDTAVYYCARYYDDHYSLDYWGQGTLVTVSSASGGGGSGGGGSGGGGSAGDIQLTQSPSILSASVGDRVTITCRASSSVSYMNWYQQKPGKAPKRWIYDTSKVASGVPYRFSGSGSGTEYTLTISSMQPEDFATYYCQQWSSNPLTFGCGTKVEIKSG
chain 2: not shown
notes: Trispecific tribody, a heterodimer; H chain derivative: VH(5T4)-CH1-scFv(hOKT3); L chain derivative: VL(5T4)-CL-scFv(PD-1.1); also called 5T4xCD3xPD-1
[5]
  binding result: binds
[4]
  binding result: binds
